Publication PMC6363454 (The Journal of Cell Biology, 2019)
Read-outs that look alike come from different tables or passages of the source.

Columns and labels:
cryo-EM structure [1] = target: the molecule itself; test: cryo-EM structure
cryo-EM structure [2] = target: the molecule itself; test: cryo-EM structure; remark: listed apart in the source

| Protein | stoichiometry N (cryo-EM structure [1]) | stoichiometry N (cryo-EM structure [2]) |
| --- | --- | --- |
| Dam1C/DASH heterodecamer (recombinant) (complex, S. cerevisiae) chain 1: MSEDKAKLGTTRSATEYRLSIGSAPTSRRSSMGESSSLMKFADQEGLTSSVGEYNENTIQQLLLPKIRELSDSIITLDSNFTRLNFIHESLADLNESLGSLLYGIMSNSWCVEFSQAPHDIQDDLIAIKQLKSLEDEKNNLVMELSNMERGIKRKKDEQGENDLAKASQNKQFNQPLFPSSQVRKYRSYDNRDKRKPSKIGNNLQVENEEDYEDDTSSEASFVLNPTNIGMSKSSQGHVTKTTRLNNNTNSKLRRKSILHTIRNSIASGADLPIENDNVVNLGDLHPNNRISLGSGAARVVNGPVTKNRNSMFSGRAERKPTESRHSVAKKTEKKINTRPPFR chain 2: MMASTSNDEEKLISTTDKYFIEQRNIVLQEINETMNSILNGLNGLNISLESSIAVGREFQSVSDLWKTLYDGLESLSDEAPIDEQPTLSQSKTK chain 3: MDSIDEQIAIKRKELQSLQKITSLTDGLKIQLTELNEQIKEMGMNADSVAQLMNNWDSIINNISQASLGLLQYAEGDYEIGPWKDSKKKESEQSNETGLEAQENDKNDEDNDEDEDLVPLPETMVRIRVDGNE chain 4: MEHNLSPLQQEVLDKYKQLSLDLKALDETIKELNYSQHRQQHSQQETVSPDEILQEMRDIEVKIGLVGTLLKGSVYSLILQRKQEQESLGSNSK chain 5: MENPHEQVQANILSRIIGNVKRLNESVAILNQELVTINNRNKNLEIMGAICDNYHSSVQFNLEATNNKKPPL chain 6: MSEQSQLDDSTIDKLIPQIFNEMRSNLNNTTNKFPKSTGGGASDNISANSNSIRSFNSITTQSLLKESESLDKITAMIKNVTAALKNNLPVYVNQVHEVCKSTNSILDSWINIHSQAGYIHKLMSDQTYLKLINDRLHNENVNTNDEDGSTLHNVIALKKKEILDLRQKLENRKGEKDAAPAKPPNQGLNPRYGVQSGRRPVPSAGISNNGRVRKTHVPASKRPSGIPRVTNRWTKPTASSSRKMFR chain 7: MDSASKEETLEKLDQEITVNLQKIDSNLSFCFHKITQDIIPHVATYSEICERIMDSTEWLGTMFQETGLVNLQANAAAPVGNAPVKSLVSNNVGIFPTSAEEASRQSQTDNGPNEADSAVHVNRDVHSMFNNDSIDDFHTANITSTGQILKLPDSSDEDTGSEAVPSREQTDLTGEGHGGADDEQDESTIQRQSRKRKISLLLQQQYGSSSSMVPSPIVPNKMRKQLAHEEHINNDGDNDDENSNNIESSPLKQGHHHPKGQADDNNEGPDEEESTKEVPKPGTIIHFSTNR chain 8: MTDALEQSVLALEGTVSVLKDSVESLKCANEPSTNLASTMLQTKRVFRLVPEYDVERSKLDLIEEVEPLVRTLGDKLRKSMGRMQRELDTLQQTYELNDLRLKKNISMDDDDALNSPDMGQEYEGRDADDVVMMASSTNEELEELKKLKEKKKQLENKLEILKQK chain 9: MGESLDRCIDDINRAVDSMSTLYFKPPGIFHNAILQGASNKASIRKDITRLIKDCNHDEAYLLFKVNPEKQSVSRRDGKEGVFDYVIKRDTDMKRNRRLGRPGEKPIIHVPKEVYLNKDRLDLNNKRRRTATTSGGGLNGFIFDTDLIGSSVISNSSSGTFKALSAVFKDDPQIQRLLYALENGSVLMEEESNNQRRKTIFVEDFPTDLILKVMAEVTDLWPLTEFKQDYDQLYHNYEQLSSKLRFIKKEVLLQDDRLKTMSQYHPSSSHDVAKIIRKEKDEIRRLEMEIANLQE chain 10: MNANKQRQYNQLAHELRELQTNLQETTKQLDIMSKQCNENLVGQLGKVHGSWLIGSYIYYMEQMLGKTQ | 17 |  |
| Dam1C/DASH outer kinetochore complex in yeast cells (in vivo) (complex) chain 1: MSEDKAKLGTTRSATEYRLSIGSAPTSRRSSMGESSSLMKFADQEGLTSSVGEYNENTIQQLLLPKIRELSDSIITLDSNFTRLNFIHESLADLNESLGSLLYGIMSNSWCVEFSQAPHDIQDDLIAIKQLKSLEDEKNNLVMELSNMERGIKRKKDEQGENDLAKASQNKQFNQPLFPSSQVRKYRSYDNRDKRKPSKIGNNLQVENEEDYEDDTSSEASFVLNPTNIGMSKSSQGHVTKTTRLNNNTNSKLRRKSILHTIRNSIASGADLPIENDNVVNLGDLHPNNRISLGSGAARVVNGPVTKNRNSMFSGRAERKPTESRHSVAKKTEKKINTRPPFR chain 2: MMASTSNDEEKLISTTDKYFIEQRNIVLQEINETMNSILNGLNGLNISLESSIAVGREFQSVSDLWKTLYDGLESLSDEAPIDEQPTLSQSKTK chain 3: MDSIDEQIAIKRKELQSLQKITSLTDGLKIQLTELNEQIKEMGMNADSVAQLMNNWDSIINNISQASLGLLQYAEGDYEIGPWKDSKKKESEQSNETGLEAQENDKNDEDNDEDEDLVPLPETMVRIRVDGNE chain 4: MEHNLSPLQQEVLDKYKQLSLDLKALDETIKELNYSQHRQQHSQQETVSPDEILQEMRDIEVKIGLVGTLLKGSVYSLILQRKQEQESLGSNSK chain 5: MENPHEQVQANILSRIIGNVKRLNESVAILNQELVTINNRNKNLEIMGAICDNYHSSVQFNLEATNNKKPPL chain 6: MSEQSQLDDSTIDKLIPQIFNEMRSNLNNTTNKFPKSTGGGASDNISANSNSIRSFNSITTQSLLKESESLDKITAMIKNVTAALKNNLPVYVNQVHEVCKSTNSILDSWINIHSQAGYIHKLMSDQTYLKLINDRLHNENVNTNDEDGSTLHNVIALKKKEILDLRQKLENRKGEKDAAPAKPPNQGLNPRYGVQSGRRPVPSAGISNNGRVRKTHVPASKRPSGIPRVTNRWTKPTASSSRKMFR chain 7: MDSASKEETLEKLDQEITVNLQKIDSNLSFCFHKITQDIIPHVATYSEICERIMDSTEWLGTMFQETGLVNLQANAAAPVGNAPVKSLVSNNVGIFPTSAEEASRQSQTDNGPNEADSAVHVNRDVHSMFNNDSIDDFHTANITSTGQILKLPDSSDEDTGSEAVPSREQTDLTGEGHGGADDEQDESTIQRQSRKRKISLLLQQQYGSSSSMVPSPIVPNKMRKQLAHEEHINNDGDNDDENSNNIESSPLKQGHHHPKGQADDNNEGPDEEESTKEVPKPGTIIHFSTNR chain 8: MTDALEQSVLALEGTVSVLKDSVESLKCANEPSTNLASTMLQTKRVFRLVPEYDVERSKLDLIEEVEPLVRTLGDKLRKSMGRMQRELDTLQQTYELNDLRLKKNISMDDDDALNSPDMGQEYEGRDADDVVMMASSTNEELEELKKLKEKKKQLENKLEILKQK chain 9: MGESLDRCIDDINRAVDSMSTLYFKPPGIFHNAILQGASNKASIRKDITRLIKDCNHDEAYLLFKVNPEKQSVSRRDGKEGVFDYVIKRDTDMKRNRRLGRPGEKPIIHVPKEVYLNKDRLDLNNKRRRTATTSGGGLNGFIFDTDLIGSSVISNSSSGTFKALSAVFKDDPQIQRLLYALENGSVLMEEESNNQRRKTIFVEDFPTDLILKVMAEVTDLWPLTEFKQDYDQLYHNYEQLSSKLRFIKKEVLLQDDRLKTMSQYHPSSSHDVAKIIRKEKDEIRRLEMEIANLQE chain 10: MNANKQRQYNQLAHELRELQTNLQETTKQLDIMSKQCNENLVGQLGKVHGSWLIGSYIYYMEQMLGKTQ |  | 17 |
